How the values were obtained:
[1] = molecular target: T1, Human complement component C1q (human, UniProt P02745 23-245; P02746 28-253; P02747 29-245); assay: BLI (Octet RED96); IgG captured through the Fab on anti-human Fab (CH1) sensors
T1 construct: mature; also called purified human C1q
Experimental: IgG-loaded sensors were then exposed for 4 minutes to a solution of kinetics buffer (pH 7.1) containing 3 μg/ml of purified human C1q (left part of the plot), followed by a dissociation step in the same buffer for 4 additional minutes (right part of the plot). Association and dissociation profiles were measured in real time as change in the interference pattern using an Octet RED96 (FortéBio).

[2] = molecular target: T2, Recombinant human FcγRIIa (H131) (human, UniProt P12318 34-218); assay: BLI (Octet RED96); His-tagged FcγR on anti-penta-His sensors, 2 µg/ml mAb cross-linked with anti-human F(ab')2
T2 construct: also called FcγRIIa allele H131; His-tagged human FcγRIIa H131
T2 sequence: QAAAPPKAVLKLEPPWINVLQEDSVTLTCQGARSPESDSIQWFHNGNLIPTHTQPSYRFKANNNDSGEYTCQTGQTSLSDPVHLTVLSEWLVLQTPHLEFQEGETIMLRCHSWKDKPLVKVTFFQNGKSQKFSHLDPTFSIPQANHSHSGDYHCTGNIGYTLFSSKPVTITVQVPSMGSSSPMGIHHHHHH
Experimental: (§1) Briefly, His-tagged human FcγRs (FcγRIIa allele H131, FcγRIIa allele R131, FcγRIIAa allele F158, FcγRIIIa allele V158 and FcγRIIb) at 2 μg/ml were captured onto anti-penta-His sensors for 6 minutes. FcγR-loaded sensors were then exposed for 4 minutes to a solution of kinetics buffer (pH 7.1) containing 2 μg/ml of each mAb in the presence 1 μg/ml of affiniPure F(ab′)₂ Fragment Goat Anti-Human IgG, F(ab′)₂ fragment-specific (to cross-link human mAbs through the Fab fragment), followed by a dissociation step in the same buffer for 4 additional minutes (right part of the plot). Association and dissociation profiles were measured in real time as change in the interference pattern using an Octet RED96 (FortéBio).

[3] = molecular target: T3, Recombinant human FcγRIIIa (V158) (human, UniProt P08637 17-208); assay: as above
T3 construct: also called FcγRIIIa allele V158; His-tagged human FcγRIIIa V158
T3 sequence (P08637 other isoform, or with tags, fused parts or gaps limits assumed): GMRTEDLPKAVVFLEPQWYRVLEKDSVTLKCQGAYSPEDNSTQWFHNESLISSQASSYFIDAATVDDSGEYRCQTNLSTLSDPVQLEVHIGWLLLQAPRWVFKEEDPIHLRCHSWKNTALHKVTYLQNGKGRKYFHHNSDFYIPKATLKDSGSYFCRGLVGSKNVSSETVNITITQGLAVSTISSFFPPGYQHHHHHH
Experimental: as §1

[4] = molecular target: T4, Recombinant human FcγRIIIa (F158) (human, UniProt P08637 17-208); assay: as above
T4 construct: also called FcγRIIIa allele F158; His-tagged human FcγRIIIa F158
T4 sequence (P08637 other isoform, or with tags, fused parts or gaps limits assumed): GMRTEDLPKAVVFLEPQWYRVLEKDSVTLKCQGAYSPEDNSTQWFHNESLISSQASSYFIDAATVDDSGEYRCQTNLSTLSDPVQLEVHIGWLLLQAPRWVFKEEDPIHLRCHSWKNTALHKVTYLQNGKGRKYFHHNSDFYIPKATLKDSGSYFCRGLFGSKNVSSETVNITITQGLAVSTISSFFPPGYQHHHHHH
Experimental: as §1

[5] = molecular target: T5, His-tagged human FcγRIIa allele R131 (human, UniProt P12318 34-218); assay: as above
T5 construct: also called FcγRIIa R131
T5 sequence (looked up): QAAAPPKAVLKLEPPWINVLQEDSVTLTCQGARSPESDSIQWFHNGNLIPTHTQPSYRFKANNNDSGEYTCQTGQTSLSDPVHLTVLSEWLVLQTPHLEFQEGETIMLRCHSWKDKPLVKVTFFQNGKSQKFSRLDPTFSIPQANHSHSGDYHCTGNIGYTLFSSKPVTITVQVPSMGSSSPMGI
Experimental: as §1

T1 sequence (P02745 23-245, chain 1 of 3): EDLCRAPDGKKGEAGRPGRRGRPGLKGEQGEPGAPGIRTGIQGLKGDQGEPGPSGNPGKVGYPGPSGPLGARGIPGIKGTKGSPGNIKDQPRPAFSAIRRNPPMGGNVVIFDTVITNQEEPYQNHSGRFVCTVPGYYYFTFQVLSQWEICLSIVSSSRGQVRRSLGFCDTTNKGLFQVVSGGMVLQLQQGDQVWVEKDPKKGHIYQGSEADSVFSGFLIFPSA
T1 sequence (P02746 28-253, chain 2 of 3): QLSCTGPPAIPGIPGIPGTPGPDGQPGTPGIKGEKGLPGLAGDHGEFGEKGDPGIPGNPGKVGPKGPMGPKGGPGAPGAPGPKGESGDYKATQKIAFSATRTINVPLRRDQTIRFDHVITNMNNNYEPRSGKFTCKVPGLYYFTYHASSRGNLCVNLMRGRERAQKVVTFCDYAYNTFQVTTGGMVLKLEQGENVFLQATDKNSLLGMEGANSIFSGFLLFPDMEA
T1 sequence (P02747 29-245, chain 3 of 3): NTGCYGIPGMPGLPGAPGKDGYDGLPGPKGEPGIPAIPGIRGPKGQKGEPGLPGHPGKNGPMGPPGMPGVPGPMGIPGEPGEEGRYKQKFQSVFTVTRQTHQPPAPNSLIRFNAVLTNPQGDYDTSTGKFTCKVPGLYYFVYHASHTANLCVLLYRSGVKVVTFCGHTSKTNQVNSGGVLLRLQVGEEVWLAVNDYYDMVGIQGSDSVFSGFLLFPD

B1: HBC34-V35-MLNS-GAALIE (antibody, human IgG1, lambda)
heavy: ELQLVESGGGWVQPGGSQRLSCAASGRIFRSFYMSWVRQAPGKGLEWVATINQDGSEKLYVDSVKGRFTISRDNAKNSLFLQMNNLRVEDTAVYYCAAWSGNSGGMDVWGQGTTVSVSSASTKGPSVFPLAPSSKSTSGGTAALGCLVKDYFPEPVTVSWNSGALTSGVHTFPAVLQSSGLYSLSSVVTVPSSSLGTQTYICNVNHKPSNTKVDKKVEPKSCDKTHTCPPCPAPELLAGPSVFLFPPKPKDTLMISRTPEVTCVVVDVSHEDPEVKFNWYVDGVEVHNAKTKPREEQYNSTYRVVSVLTVLHQDWLNGKEYKCKVSNKALPLPEEKTISKAKGQPREPQVYTLPPSRDELTKNQVSLTCLVKGFYPSDIAVEWESNGQPENNYKTTPPVLDSDGSFFLYSKLTVDKSRWQQGNVFSCSVLHEALHSHYTQKSLSLSPGK
light: SYELTQPPSVSVSPGQTVSIPCSGDKLGNKNVAWFQHKPGQSPVLVIYEVKYRPSGIPERFSGSNSGNTATLTISGTQAMDEAAYFCQTFDSTTVVFGGGTRLTVLGQPKAAPSVTLFPPSSEELQANKATLVCLISDFYPGAVTVAWKADSSPVKAGVETTTPSKQSNNKYAASSYLSLTPEQWKSHRSYSCQVTHEGSTVEKTVAPTECS
- binding result [1]: no binding (tested: 3 µg/ml of purified human C1q)
- binding result [2]: binds
- binding result [3]: binds
- binding result [4]: binds
- binding result [5]: binds

From patent US20240092872A1 (VIR BIOTECHNOLOGY, published 2024)
